Test results taken from publication PMC2582146 (Biochemistry, 2008).
No end group written: not given here.

T1: NHERF1 PDZ1 domain (human, UniProt O14745 1-139)
T1 sequence (looked up): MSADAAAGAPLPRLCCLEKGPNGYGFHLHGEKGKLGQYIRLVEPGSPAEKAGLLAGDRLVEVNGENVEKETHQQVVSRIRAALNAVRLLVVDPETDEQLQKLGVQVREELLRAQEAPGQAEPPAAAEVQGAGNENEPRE


Each binder was assayed against T1, NHERF1 PDZ1 domain (assay: fluorescence polarisation).
A Ki of 0.949 µM was found for CDTRL [C-CFTR4] in this work.

Target: T1, NHERF1 PDZ1 domain
Assay: fluorescence polarisation
Remark: another data set of the same source
A Ki of 0.67 ± 0.097 µM was found for CVQDTRL [C-CFTR6] in this work.
A Ki of 0.597 ± 0.077 µM was found for CTEEEVQDTRL [C-CFTR10] in this work.
A Ki of 0.209 ± 0.064 µM was found for CGGAALKEETEEEVQDTRL [CGG-CFTR16] in this work.
A Ki of 1.52 ± 0.078 µM was found for CDTRL [C-CFTR4] in this work.

The binders below were run against T2, CAL PDZ domain (UniProt Q9HD26-2 278-362) (assay: fluorescence polarisation).
A Ki of 22.6 ± 7.1 µM was found for CANGLMQTSKL [C-SSR5_(10)] in this work.
A Ki of 110 ± 60 µM was found for CEVYLLNSTTL [C-ClC3B10] in this work.
A Ki of 410 ± 190 µM was found for CRPGFASESKV [C-β1AR10] in this work.

Target: T2, CAL PDZ domain
Assay: fluorescence polarisation
Remark: another data set of the same source
A Ki of 690 ± 120 µM was found for CTEEEVQDTRL [C-CFTR10] in this work.
A Ki of 37.6 ± 4 µM was found for CANGLMQTSKL [C-SSR5_(10)] in this work.
A Ki of 93 ± 8.5 µM was found for CEVYLLNSTTL [C-ClC3B10] in this work.
A Ki of 510 ± 110 µM was found for CRPGFASESKV [C-β1AR10] in this work.
A Ki of 42.2 ± 4.2 µM was found for CHRTCYLVTQL [C-AIC3A10] in this work.
A Ki of 47 ± 10 µM was found for CYPKQMPLSQV [C-FRZ8_(10)] in this work.
A Ki of 88.3 ± 6.3 µM was found for CDGQMQLVTSL [C-CL1_(10)] in this work.
A Ki of 107 ± 1.7 µM was found for CLPHPHSTTRV [C-NLG2_(10)] in this work.
A Ki of 150 ± 20 µM was found for CAPIAGFSSFV [C-SDK2_(10)] in this work.
A Ki of 158 ± 19 µM was found for CHPHSHSTTRV [C-NLG10] in this work.
A Ki of 229 ± 16 µM was found for CQPRTWLQSPV [C-RTKN10] in this work.
A Ki of 451 ± 42 µM was found for CYHKQVSLSHV [C-FRZ5_(10)] in this work.
A Ki of 560 ± 130 µM was found for CGNDPDRGTSI [C-GluRδ2_(10)] in this work.
A Ki of 875 ± 56 µM was found for CALDTSHGTSI [C-GluRδ1_(10)] in this work.
A Ki of 1110 ± 480 µM was found for CNQLAWFDTDL [C-βCAT10] in this work.
A Ki of 1940 ± 920 µM was found for CKKMPSIESDV [C-NR2A10] in this work.

The binders below were run against T1, NHERF1 PDZ1 domain (assay: ITC).
A dH of -9.11 kcal/mol was found for TEEEVQDTRL [CFTR10] in this work.

Target: T1, NHERF1 PDZ1 domain
Assay: ITC
Remark: another data set of the same source
TEEEVQDTRL [CFTR10] was tested, and the Kd was 0.787 ± 0.055 µM, the dH was -10.4 ± 0.19 kcal/mol and the “dH extrapolated to 37 °C” value was -12.2 kcal/mol.

These binders were tested against T1, NHERF1 PDZ1 domain (assay: SPR).
A Kd of 0.0103 µM was found for CTEEEVQDTRL [C-CFTR10] in this work.

Each binder was assayed against T2, CAL PDZ domain (assay: peptide or protein array).
ETEEEVQDTRL (peptide, UniProt P13569 1470-1480, looked up) [CFTR C-terminal undecamer peptide on the HUMLIB array]: binds.
AANGLMQTSKL (peptide, UniProt P35346 354-364, looked up) [SSR5 C-terminal undecamer peptide on the HUMLIB array]: binds.

Target: T1, NHERF1 PDZ1 domain
Assay: fluorescence polarisation
Remark: another data set of the same source
A Kd of 0.949 ± 0.089 µM was found for C(fluorescein‑5‑maleimide)DTRL [F*C-CFTR4] in this work.
A Kd of 0.279 ± 0.021 µM was found for fluorescein-TEEEVQDTRL [F*-CFTR10] in this work.
A Kd of 0.116 ± 0.01 µM was found for fluorescein-GGAALKEETEEEVQDTRL [F*GG-CFTR16] in this work.
